# From US20240270846A1 (published 2024)
# Molecular target: T1, CD3 epsilon homodimer protein (UniProt P07766 23-126)
# T1 construct: Construct of the homodimer is not described; also called CD3 (CD3 epsilon)
# Test: SPR Biacore T200, CD3e homodimer on chip, antibody analyte;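 note: CD3 epsilon homodimer amine-coupled on CM4 sensor chip, antibodies injected as analyte at 25 °C in HBS-EP+, ratio ≥0.8 taken as binding retained versus unaltered parent antibody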
# T1 sequence (P07766 23-126): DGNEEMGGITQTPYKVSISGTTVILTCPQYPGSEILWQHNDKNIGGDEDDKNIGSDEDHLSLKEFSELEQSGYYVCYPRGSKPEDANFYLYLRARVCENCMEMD
row,Binder,ratio of amounts bound (altered form/GLS3000)
1,"GLS3000 T31I one-arm antibody (antibody, human IgG1, kappa, L234A L235A, N297A, name in Kabat numbering) light: DIVMTQSPLSLPVTPGEPASISCRSSQSLVHSNRNIYLHWYQQKPGQAPRLLIYKVSNRFSGVPDRFSGSGSGTDFTLKISRVEAEDVGVYYCGQGTQVPYTFGQGTKLEIKRTVAAPSVFIFPPSDEQLKSGTASVVCLLNNFYPREAKVQWKVDNALQSGNSQESVTEQDSKDSTYSLSSTLTLSKADYEKHKVYACEVTHQGLSSPVTKSFNRGEC heavy: QVQLVESGGGVVQPGRSLRLSCAASGFTFSNAWMHWVRQAPGKGLEWVAQIKAKSNNYATYYAESVKGRFTISRDDSKNSLYLQMNSLKTEDTAVYYCRYVHYGAYYGVDAWGQGTTVTVSSASTKGPSVFPLAPSSKSTSGGTAALGCLVKDYFPEPVTVSWNSGALTSGVHTFPAVLQSSGLYSLSSVVTVPSSSLGTQTYICNVNHKPSNTKVDKKVEPKSCDKTHTCPPCPAPEAAGGPSVFLFPPKPKDTLMISRTPEVTCVVVDVSHEDPEVKFNWYVDGVEVHNAKTKPREEQYASTYRVVSVLTVLHQDWLNGKEYKCKVSNKALPAPIEKTISKAKGQPREPQVYTLPPSRCELTKNQVSLSCAVKGFYPSDIAVEWESNGQPENNYKTTPPVLDSDGSFFLVSKLTVDKSRWQQGNVFSCSVMHEALHNHYTQKSLSLSPDYKDDDDK EPKSSDKTHTCPPCPAPELLGGPSVFLFPPKPKDTLMISRTPEVTCVVVDVSHEDPEVKFNWYVDGVEVHNAKTKPREEQYNSTYRVVSVLTVLHQDWLNGKEYKCKVSNKALPAPIEKTISKAKGQPREPQVCTLPPSRDELTKNQVSLWCLVKGFYPSDIAVEWESNGQPENNYKTTPPVLDSDGSFFLYSKLTVDKSRWQQGNVFSCSVMHEALHNRYTQKSLSLSP",0.97
2,"GLS3000 T31N one-arm antibody (antibody, human IgG1, kappa, L234A L235A, N297A, name in Kabat numbering) light: DIVMTQSPLSLPVTPGEPASISCRSSQSLVHSNRNNYLHWYQQKPGQAPRLLIYKVSNRFSGVPDRFSGSGSGTDFTLKISRVEAEDVGVYYCGQGTQVPYTFGQGTKLEIKRTVAAPSVFIFPPSDEQLKSGTASVVCLLNNFYPREAKVQWKVDNALQSGNSQESVTEQDSKDSTYSLSSTLTLSKADYEKHKVYACEVTHQGLSSPVTKSFNRGEC heavy: QVQLVESGGGVVQPGRSLRLSCAASGFTFSNAWMHWVRQAPGKGLEWVAQIKAKSNNYATYYAESVKGRFTISRDDSKNSLYLQMNSLKTEDTAVYYCRYVHYGAYYGVDAWGQGTTVTVSSASTKGPSVFPLAPSSKSTSGGTAALGCLVKDYFPEPVTVSWNSGALTSGVHTFPAVLQSSGLYSLSSVVTVPSSSLGTQTYICNVNHKPSNTKVDKKVEPKSCDKTHTCPPCPAPEAAGGPSVFLFPPKPKDTLMISRTPEVTCVVVDVSHEDPEVKFNWYVDGVEVHNAKTKPREEQYASTYRVVSVLTVLHQDWLNGKEYKCKVSNKALPAPIEKTISKAKGQPREPQVYTLPPSRCELTKNQVSLSCAVKGFYPSDIAVEWESNGQPENNYKTTPPVLDSDGSFFLVSKLTVDKSRWQQGNVFSCSVMHEALHNHYTQKSLSLSPDYKDDDDK EPKSSDKTHTCPPCPAPELLGGPSVFLFPPKPKDTLMISRTPEVTCVVVDVSHEDPEVKFNWYVDGVEVHNAKTKPREEQYNSTYRVVSVLTVLHQDWLNGKEYKCKVSNKALPAPIEKTISKAKGQPREPQVCTLPPSRDELTKNQVSLWCLVKGFYPSDIAVEWESNGQPENNYKTTPPVLDSDGSFFLYSKLTVDKSRWQQGNVFSCSVMHEALHNRYTQKSLSLSP",0.32
3,"GLS3000 T31K one-arm antibody (antibody, human IgG1, kappa, L234A L235A, N297A, name in Kabat numbering) light: DIVMTQSPLSLPVTPGEPASISCRSSQSLVHSNRNKYLHWYQQKPGQAPRLLIYKVSNRFSGVPDRFSGSGSGTDFTLKISRVEAEDVGVYYCGQGTQVPYTFGQGTKLEIKRTVAAPSVFIFPPSDEQLKSGTASVVCLLNNFYPREAKVQWKVDNALQSGNSQESVTEQDSKDSTYSLSSTLTLSKADYEKHKVYACEVTHQGLSSPVTKSFNRGEC heavy: QVQLVESGGGVVQPGRSLRLSCAASGFTFSNAWMHWVRQAPGKGLEWVAQIKAKSNNYATYYAESVKGRFTISRDDSKNSLYLQMNSLKTEDTAVYYCRYVHYGAYYGVDAWGQGTTVTVSSASTKGPSVFPLAPSSKSTSGGTAALGCLVKDYFPEPVTVSWNSGALTSGVHTFPAVLQSSGLYSLSSVVTVPSSSLGTQTYICNVNHKPSNTKVDKKVEPKSCDKTHTCPPCPAPEAAGGPSVFLFPPKPKDTLMISRTPEVTCVVVDVSHEDPEVKFNWYVDGVEVHNAKTKPREEQYASTYRVVSVLTVLHQDWLNGKEYKCKVSNKALPAPIEKTISKAKGQPREPQVYTLPPSRCELTKNQVSLSCAVKGFYPSDIAVEWESNGQPENNYKTTPPVLDSDGSFFLVSKLTVDKSRWQQGNVFSCSVMHEALHNHYTQKSLSLSPDYKDDDDK EPKSSDKTHTCPPCPAPELLGGPSVFLFPPKPKDTLMISRTPEVTCVVVDVSHEDPEVKFNWYVDGVEVHNAKTKPREEQYNSTYRVVSVLTVLHQDWLNGKEYKCKVSNKALPAPIEKTISKAKGQPREPQVCTLPPSRDELTKNQVSLWCLVKGFYPSDIAVEWESNGQPENNYKTTPPVLDSDGSFFLYSKLTVDKSRWQQGNVFSCSVMHEALHNRYTQKSLSLSP",1.04

# Results, then the binder that gave them:
row,ratio of amounts bound (altered form/GLS3000),Binder
1,0.18,"GLS3000 T92D one-arm antibody (antibody, human IgG1, kappa, L234A L235A, N297A, name in Kabat numbering) light: DIVMTQSPLSLPVTPGEPASISCRSSQSLVHSNRNTYLHWYQQKPGQAPRLLIYKVSNRFSGVPDRFSGSGSGTDFTLKISRVEAEDVGVYYCGQGDQVPYTFGQGTKLEIKRTVAAPSVFIFPPSDEQLKSGTASVVCLLNNFYPREAKVQWKVDNALQSGNSQESVTEQDSKDSTYSLSSTLTLSKADYEKHKVYACEVTHQGLSSPVTKSFNRGEC heavy: QVQLVESGGGVVQPGRSLRLSCAASGFTFSNAWMHWVRQAPGKGLEWVAQIKAKSNNYATYYAESVKGRFTISRDDSKNSLYLQMNSLKTEDTAVYYCRYVHYGAYYGVDAWGQGTTVTVSSASTKGPSVFPLAPSSKSTSGGTAALGCLVKDYFPEPVTVSWNSGALTSGVHTFPAVLQSSGLYSLSSVVTVPSSSLGTQTYICNVNHKPSNTKVDKKVEPKSCDKTHTCPPCPAPEAAGGPSVFLFPPKPKDTLMISRTPEVTCVVVDVSHEDPEVKFNWYVDGVEVHNAKTKPREEQYASTYRVVSVLTVLHQDWLNGKEYKCKVSNKALPAPIEKTISKAKGQPREPQVYTLPPSRCELTKNQVSLSCAVKGFYPSDIAVEWESNGQPENNYKTTPPVLDSDGSFFLVSKLTVDKSRWQQGNVFSCSVMHEALHNHYTQKSLSLSPDYKDDDDK EPKSSDKTHTCPPCPAPELLGGPSVFLFPPKPKDTLMISRTPEVTCVVVDVSHEDPEVKFNWYVDGVEVHNAKTKPREEQYNSTYRVVSVLTVLHQDWLNGKEYKCKVSNKALPAPIEKTISKAKGQPREPQVCTLPPSRDELTKNQVSLWCLVKGFYPSDIAVEWESNGQPENNYKTTPPVLDSDGSFFLYSKLTVDKSRWQQGNVFSCSVMHEALHNRYTQKSLSLSP"
2,0.63,"GLS3000 T92A one-arm antibody (antibody, human IgG1, kappa, L234A L235A, N297A, name in Kabat numbering) light: DIVMTQSPLSLPVTPGEPASISCRSSQSLVHSNRNTYLHWYQQKPGQAPRLLIYKVSNRFSGVPDRFSGSGSGTDFTLKISRVEAEDVGVYYCGQGAQVPYTFGQGTKLEIKRTVAAPSVFIFPPSDEQLKSGTASVVCLLNNFYPREAKVQWKVDNALQSGNSQESVTEQDSKDSTYSLSSTLTLSKADYEKHKVYACEVTHQGLSSPVTKSFNRGEC heavy: QVQLVESGGGVVQPGRSLRLSCAASGFTFSNAWMHWVRQAPGKGLEWVAQIKAKSNNYATYYAESVKGRFTISRDDSKNSLYLQMNSLKTEDTAVYYCRYVHYGAYYGVDAWGQGTTVTVSSASTKGPSVFPLAPSSKSTSGGTAALGCLVKDYFPEPVTVSWNSGALTSGVHTFPAVLQSSGLYSLSSVVTVPSSSLGTQTYICNVNHKPSNTKVDKKVEPKSCDKTHTCPPCPAPEAAGGPSVFLFPPKPKDTLMISRTPEVTCVVVDVSHEDPEVKFNWYVDGVEVHNAKTKPREEQYASTYRVVSVLTVLHQDWLNGKEYKCKVSNKALPAPIEKTISKAKGQPREPQVYTLPPSRCELTKNQVSLSCAVKGFYPSDIAVEWESNGQPENNYKTTPPVLDSDGSFFLVSKLTVDKSRWQQGNVFSCSVMHEALHNHYTQKSLSLSPDYKDDDDK EPKSSDKTHTCPPCPAPELLGGPSVFLFPPKPKDTLMISRTPEVTCVVVDVSHEDPEVKFNWYVDGVEVHNAKTKPREEQYNSTYRVVSVLTVLHQDWLNGKEYKCKVSNKALPAPIEKTISKAKGQPREPQVCTLPPSRDELTKNQVSLWCLVKGFYPSDIAVEWESNGQPENNYKTTPPVLDSDGSFFLYSKLTVDKSRWQQGNVFSCSVMHEALHNRYTQKSLSLSP"
3,0.31,"GLS3000 T31P one-arm antibody (antibody, human IgG1, kappa, L234A L235A, N297A, name in Kabat numbering) light: DIVMTQSPLSLPVTPGEPASISCRSSQSLVHSNRNPYLHWYQQKPGQAPRLLIYKVSNRFSGVPDRFSGSGSGTDFTLKISRVEAEDVGVYYCGQGTQVPYTFGQGTKLEIKRTVAAPSVFIFPPSDEQLKSGTASVVCLLNNFYPREAKVQWKVDNALQSGNSQESVTEQDSKDSTYSLSSTLTLSKADYEKHKVYACEVTHQGLSSPVTKSFNRGEC heavy: QVQLVESGGGVVQPGRSLRLSCAASGFTFSNAWMHWVRQAPGKGLEWVAQIKAKSNNYATYYAESVKGRFTISRDDSKNSLYLQMNSLKTEDTAVYYCRYVHYGAYYGVDAWGQGTTVTVSSASTKGPSVFPLAPSSKSTSGGTAALGCLVKDYFPEPVTVSWNSGALTSGVHTFPAVLQSSGLYSLSSVVTVPSSSLGTQTYICNVNHKPSNTKVDKKVEPKSCDKTHTCPPCPAPEAAGGPSVFLFPPKPKDTLMISRTPEVTCVVVDVSHEDPEVKFNWYVDGVEVHNAKTKPREEQYASTYRVVSVLTVLHQDWLNGKEYKCKVSNKALPAPIEKTISKAKGQPREPQVYTLPPSRCELTKNQVSLSCAVKGFYPSDIAVEWESNGQPENNYKTTPPVLDSDGSFFLVSKLTVDKSRWQQGNVFSCSVMHEALHNHYTQKSLSLSPDYKDDDDK EPKSSDKTHTCPPCPAPELLGGPSVFLFPPKPKDTLMISRTPEVTCVVVDVSHEDPEVKFNWYVDGVEVHNAKTKPREEQYNSTYRVVSVLTVLHQDWLNGKEYKCKVSNKALPAPIEKTISKAKGQPREPQVCTLPPSRDELTKNQVSLWCLVKGFYPSDIAVEWESNGQPENNYKTTPPVLDSDGSFFLYSKLTVDKSRWQQGNVFSCSVMHEALHNRYTQKSLSLSP"
